The subject of test [1] is CHO-K1 human α11-mediated rat tail type I collagen gel contraction. Briefly: Collagen gel contraction assay. The test is classed as cell-based. The conditions noted are these: compared to untreated condition. As to the method:
24-well plates were blocked with 2% BSA in PBS overnight at 37° C. The following day, the plates were washed 3 times with PBS before being used in the assay. Human CHO cell lines expressing α11 were harvested and resuspended at 1.25×10^6 in ExpiCHO Expression Medium (Gibco™ Cat #A2910002). The collagen gel solution was prepared by diluting 3 mg/mL stock collagen type I (Gibco™ Collagen I Rat Protein, Tail Cat #A1048301) to 1 mg/mL in the media containing the CHO cells. Sodium hydroxide was added to the solution to neutralize the pH and 400 μL of the collagen solution was added to each well of the 24-well plates. For the wells where the antibodies were included in the collagen gel solution, CHO cells were prepared at 2.5×10^6 and the antibodies were prepared at 2× final concentration in ExpiCHO media. The cells and antibodies were then combined 1:1 before the addition of the stock collagen type 1. The gels were allowed to polymerize for 60 minutes at 37° C. Antibodies were added to the ExpiCHO media, which was then layered on top of the polymerized gel (400 μL/well). The gels were incubated for 6 days at 37° C. before gel contraction was quantified. Images of each well were analyzed using Image J and gel contraction was determined as a percentage of the initial gel area.
Selected exemplary antibodies were tested for the ability to inhibit cell-mediated 3D gel contraction because this ability is directly linked to the functionality of the exemplary antibodies.

Test [2] concerns human Precision-Cut Kidney Slices (PCKS). Briefly: Precision-Cut Kidney Slices (PCKS). The test is classed as cell-based. The conditions noted are these: 72- and 96-hour time points at each dose tested (1, 10 and 50 μg/mL). On the procedure:
PCKS were prepared from explanted fibrotic human kidney tissue and rested for 24 hours to allow the post-slicing stress period to elapse before experiments began. PCKS were cultured with TGF-β1 (3 ng/mL) and PDGFββ (50 ng/mL) in the presence or absence of Alk5i (10 μM, positive control), test anti-α11β1 antibodies over three doses (1, 10 and 50 μg/mL) or in the presence of IgG control antibodies at a single high dose. PCKS culture media was harvested every 24 hours for a total of 3 time points. Levels of Collagen type I α1 (col1a1) in the tissue culture supernatants were quantified using R&D Duoset ELISA kits. Statistics were performed using Two-way ANOVA followed by Dunnett's multiple comparisons test.
As described in the methods above, PCKS were prepared from explanted fibrotic human kidney tissue and rested for 24 hours to allow the post-slicing stress period to elapse before experiments began. PCKS were cultured with TGF-β1 (3 ng/ml) and PDGFββ (50 ng/mL) in the presence or absence of Alk5i (10 μM, positive control), test anti-α11β1 antibodies over three doses (1, 10 and 50 μg/mL) or in the presence of IgG control antibodies at a single high dose. PCKS culture media was harvested every 24 hours for a total of 3 time points. Levels of Collagen type I α1 (col1a1) in the tissue culture supernatants were quantified using R&D Duoset ELISA kits. […]

In the next test the test system is α11β1 Headpiece. Briefly: SPR binding to α11β1 Headpiece. Further details: species or system human. The conditions noted are these: in words. As to the method:
(§1) The affinity of antibodies for human α11β1 was measured by surface plasmon resonance assay (SPR). Affinity was measured at pH 7.6 and 25° C. with a Biacore T200 instrument. Anti-HIS antibody was immobilized on the SPR sensor surface using EDC/NHS covalent attachment. HIS-tagged human α11β1 was captured on the sensor surface and a single-cycle kinetics assay was used. Increasing concentrations of test antibody were injected in series over the sensor-bound α11β1. Dissociation was monitored for 1000 seconds. A sensor surface with only anti-HIS antibody and a series of blank injections were used to double-reference subtract the data. A 1:1 Langmuir model was fit to the data to estimate the kinetic association and dissociation constants. The affinity (equilibrium dissociation constant) of the interaction was calculated by dividing the kinetic dissociation constant by the kinetic association constant. Between injection cycles α11β1 and bound antibody were removed with an injection of 10 mM glycine at pH 1.5.
(§2) The binding affinity of antibodies for the α11β1 Headpiece and α11β1 I Domain as measured by SPR is shown in FIG. 10A and FIG. 10B, respectively.
In general terms: In SPR one partner is held on a chip, and binding of the other changes the refractive index at the surface.

Test [3] concerns the target T1, α11β1 I Domain (Homo sapiens, UniProt Q9UKX5).
T1 sequence (Q9UKX5 164-345 limits assumed): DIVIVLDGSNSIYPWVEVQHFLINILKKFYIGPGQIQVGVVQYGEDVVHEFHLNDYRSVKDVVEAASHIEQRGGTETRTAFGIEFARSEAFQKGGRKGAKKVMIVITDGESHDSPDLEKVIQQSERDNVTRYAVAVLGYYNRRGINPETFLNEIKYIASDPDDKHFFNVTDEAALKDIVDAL
Briefly: SPR binding to α11β1 I Domain. As to conditions: in words. On the procedure: as §1, §2

The next test concerns α1β1, α2β1 and/or α10β1. The test can be described thus: Counter-screen against other collagen receptors (off target). The test is classed as binding, human. As to the method:
Wistar rats were immunized with recombinant human α11β1 protein. An enzyme-linked immunosorbent assay (ELISA) was used to test an immune response against target human and mouse proteins. Subsequently, cell fusion (by electro fusion) was performed with animals that produced a good immune response. All fused cells were plated in a 96-well plate and supernatants were screened by ELISA against soluble human and mouse α11β1. Positive clones were counter-screened against human α1β1, α2β1 and α10β1. […] Purified antibodies were then generated from the selected clones and heavy chain and light chain variable domain sequences were obtained from each purified antibody.
10 mice from 5 different strains were immunized with an appropriate mixture of human α11β1, mouse α11β1 and tolerance breaking protein. Plasma titers were evaluated by ELISA against a mixture of human and mouse α11β1. Popliteal, inguinal, and iliac lymph nodes were collected. ELISA-positive anti-human/mouse α11β1 hybridomas were expanded and subjected to a secondary screen against human and mouse α11β1, control HIS protein, and a counter-screen was performed against human […], α2β1 and α10β1. Supernatant IgG concentration was sufficient for functional screening. […]
In general terms: The purpose of a counterscreen is to sort out artefacts and off-target activity.

Test [4] deals with T1, α11β1 I Domain. The test can be described thus: ELISA binding to in-house generated α11β1 I domain. Further details: An in-house generated I domain of α11β1 was used; made in house. The conditions noted are these: in words. On the procedure: 0.25 μg/mL of target antigen (recombinant human or mouse α11β1) was plated in a 96-well plate over night at 4° C. Plates were washed (PBS with 0.1% Tween-20), blocked (PBS with 2% BSA and 0.05% Tween-20) for 1 hour at room temperature and incubated with a range of antibody concentrations for 1 hour at room temperature. Subsequently, plates were washed and incubated with biotinylated anti-rabbit/mouse/human IgG in a 1:1000 dilution buffer and incubated for 1 hour at room temperature. After washing the plates, Streptavidin HRP was added at 1:200 in dilution buffer and incubated for 1 hour at room temperature. Ultra TMB ELISA substrate solution was added and the plates incubated for 5 minutes on a plate shaker. The reaction was stopped by adding stop solution to each well and plates were read at 450 nm.
Data was also collected to determine whether antibodies of interest bind to the I domain of α11β1. An in-house generated I domain of α11β1 was used. […] Mouse antibodies 10-F23, 10-L15, 7-O8, 6-A12, 9-G05 and 9-E16 and rabbit antibodies 7-H12 and 2-D3 were also tested for binding against the in-house generated α11β1 I domain. FIGS. 3A and 3B show graphs illustrating binding data from exemplary mAbs.
In general terms: An ELISA detects its analyte on a solid surface through an enzyme-linked reagent.

B1: 1994_01_C07: fully human anti-α11β1 mAb from phage display; HCDR3 SEQ ID NO: 267, LCDR3 SEQ ID NO: 271 (antibody, V domains shown)
VH: QVQLVQSGAEVKKPGASVKVSCKASGYTFTSYGISWVRQAPGQGLEWMGWISAYNGNTNYAQKLQGRVTMTTDTSTSTAYMELRSLRSDDTAAYYCARVTGITGTTIDPWGQGTMVTVSS
VL: DIQMTQSPSSLSASVGDRVTITCRASQSISSYLNWYQQKPGKAPKLLIYDASSLESGVPSRFSGSGSGTEFTLTISSLQPDDFAVYYCQQYNNWPQTFGQGTKVEIK
With B1, the “Inhibition of CHO-hu α11-mediated collagen gel contraction” value in test [1] is reported as “inhibited”. In test [2], the “Inhibition of col1a1 secretion” value was “significant inhibition of col1a1 secretion”. In addition, the “Binding to α11β1 headpiece domain (SPR)” value with α11β1 Headpiece is listed as “do not bind”. For the same molecule, the “Binding to α11β1 I domain (SPR)” value with α11β1 I Domain [3] is reported as “do not bind”.

B2: 40G10H11: rat anti-α11β1 mAb; VH SEQ ID NO: 157, VL SEQ ID NO: 158 (antibody, V domains shown)
VH: MDIRLSLGFLVLFIKGDQCAVQLVESGGGLVQPGRSLKLSCAASRITFTDYYMAWVRQAPTKGLEWVATISSDGGDTFYRDSVKGRFTISRDNAKSTLYLQMVSLRSEDTATYYCSTDRGAQFGYWGQGTLVTVSS
VL: MAPVQLLGLLLIWLPAMRCDIQMTQSPSFLSASVGDRVSINCKASQNVHENLNWYQQKLGEAPKRLIYNTNNLQTGIPSRFSGSGSGADYTLTISSLQPEDFATYFCLQHNAFPYTFGPGTKLELK
On to B2, for which the “Cross-reactivity with other collagen receptors” value in the test on α1β1, α2β1 and/or α10β1 is “does cross-react with other collagen receptors”. Moreover, the “Binding to the I domain of α11β1” value in the test with α11β1 I Domain [4] is given as “not found to be an I-domain binder”.

The record behind these values is patent US20240317865A1, “ANTIBODIES AGAINST INTEGRIN ALPHA 11 BETA 1” (MOMENTA PHARMACEUTICALS, INC., priority 2020, published 2024).
